Reference: doi:10.1101/2023.12.09.570908 (bioRxiv, 2023)

Tests used:
WDR5^22-334 [1] = target: T1, WDR5^22-334 (human, UniProt P61964 22-334); assay: ITC
WDR5^22-334 [2] = target: T1, WDR5^22-334; assay: ITC; remark: listed apart in the source

B1: PTENα-NTE^116-148 peptide (peptide)
peptide: SSRRSSHYPAAVQSQAAAERGASATAKSRAISI
**Q.** Which results are given for B1?
**A.** Kd (WDR5^22-334 [1]): 3.8 µM; Kd against the 1:1 mixture of WDR5^22-334 and H3^1-15 (WDR5^22-334 [2]): 32 ± 3 µM
